Holding throughout (experiment): SEC
A general note: Size exclusion chromatography separates by hydrodynamic size, large species first.

For one test, the target named is ΔNp63α R304Q/V603D.
Test [1] has as its target ΔNp63α R279H in the V603D background.
For another test, the target named is ΔNp63α V603D.

The term stoichiometry N denotes the number of molecules, sites or subunits per partner or assembly. Take ΔNp63α R304Q/V603D (natural protein): in the test with ΔNp63α R304Q/V603D, the stoichiometry N worked out at 4.
“ΔNp63α R279H in the V603D background (natural protein)” had a stoichiometry N in test [1] of 4.
Substance ΔNp63α V603D (natural protein) returned a stoichiometry N in the test with ΔNp63α V603D of 4.

The record behind these values is publication PMC5798343.
